Data reported in the supplement of paper PMC10567573.

B1: ZNF263 (parent)
chain: KPYKCTLCGENFSHRSNLIRHQRI
B2: RHOBTB2 (parent)
chain: HHHHGRDFLLRAASFDVCESVDEA

Variants of: B1
Assay: protein stability index of a GFP-peptide fusion (GPS, HEK-293T) (PSI 1-6); higher = more stable
Conditions: c terminus: a fixed tail appended
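Further: lentivirally expressed fusions sorted by FACS into six bins by GFP to DsRed ratio, PSI derived from sequencing read proportions per bin multiplied by bin number.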

Protein stability index: each site, then its substitutions
R20: Y 1.68 | W 1.76 | V 1.99 | T 2.33
H21: C 2.6 | A 2.13 | Q 1.14 | M 2.72 | S 1.89 | Y 2.46 | R 1.78 | L 1.89 | P 1.69 | F 2.34 | K 2.04 | G 1.83 | N 3.21 | W 3.53 | D 2.29 | E 2.58 | T 2.22 | I 1.58
I24: P 2.59 | E 3.68 | W 2.4 | Q 4.56 | L 2.3 | R 3.16 | M 2.74 | F 1.93 | H 2.45 | Y 2.51 | N 3.11 | V 2.63 | G 2.75 | C 3.76 | A 2.81 | K 2.89 | T 2.64 | D 3.09 | S 2.53
Q22: G 1.86 | K 2.14 | I 2.72 | A 2.49 | T 2.54 | E 1.66 | Y 2.91 | M 3.43 | D 2.01 | W 2.65 | C 2.44 | R 3.17 | N 2.61 | V 2.29 | H 3.09 | P 1.39 | F 2.35 | S 2.54 | L 2.35
R23: I 2.48 | F 1.66 | Y 2.57 | H 3.28 | K 3.08 | P 1.33 | D 2.73 | Q 2.34 | V 2.01 | A 2.57 | S 2.28 | N 2.63 | G 2.49 | C 4.48 | L 2.82 | T 1.88 | W 1.65 | E 2.67 | M 2.88

Variants of: B2
Assay: as above
Conditions: c terminus: a fixed tail appended

Protein stability index: each site, then its substitutions
R11: Y 2.39 | I 2.41 | A 3.29 | E 5.3 | K 4.17 | F 1.67 | L 2.35 | P 4.26 | T 3.72 | W 1.44 | H 4.06 | G 4.43 | S 3.85 | Q 3.94 | V 2.85 | N 3.87 | C 2.63 | D 5.18 | M 2.38
G5: N 3.95 | D 4.86 | T 4.15 | L 2.6 | A 3.83 | M 3.42 | K 4.2 | S 4.61 | F 1.6 | V 3.37 | R 4.3 | E 4.42 | H 4.34 | Y 2.33 | W 2.21 | Q 4.21 | C 2.63 | I 3.27 | P 4.44
F8: A 5.04 | Q 5.04 | L 4.45 | C 4.74 | E 4.89 | H 5.06 | P 5.21 | T 4.28 | M 4.86 | V 4.66 | D 5.15 | K 4.61 | I 4.19 | W 3.28 | N 5.33 | Y 3.57 | S 4.37 | G 4.74 | R 4.74
S14: E 3.89 | K 3.17 | C 3.36 | I 2.73 | A 3.55 | H 3.57 | F 3.03 | G 3.15 | D 4.13
L10: F 2.96 | N 5.01 | R 4.55 | G 4.29 | C 4.2 | P 4.18 | M 3.64 | I 4.21 | T 4.8 | V 4.06 | Q 4.86 | W 2.34 | S 3.81 | K 4.09 | D 5.17 | E 5.02 | Y 3.9 | H 4.69 | A 3.94
D7: C 1.92 | H 2.34 | V 2.87 | F 2.06 | R 3.16 | L 1.82 | P 3.31 | W 2.29 | G 3.34 | A 2.97 | E 3.8 | I 1.99 | N 3.25 | S 3.17 | M 1.79 | Q 3.18 | T 2.92 | Y 2.04 | K 3.85
A13: W 2.45 | Q 3.84 | V 3.14 | F 1.92 | I 3.12 | E 4.38 | N 4.38 | P 4.66 | M 2.49 | D 4.51 | G 4.33 | H 3.75 | Y 2.87 | K 4.09 | R 3.73 | L 3.2 | S 3.96 | T 3.49 | C 1.87
H2: I 3.92 | W 3.35 | L 3.93 | T 1.8 | D 4.67 | V 3.46 | K 4.67 | P 4.49 | N 4.52 | G 3.72 | E 4.75 | S 2.62 | R 3.9 | A 4.04 | F 3.69 | M 3.96 | Y 4.16 | C 3.43 | Q 4.04
H4: W 2.31 | G 3.73 | R 3.62 | D 4.12 | C 2.67 | K 3.25 | V 4.02 | I 3.83 | N 4.15 | E 3.96 | T 3.94 | L 3.65 | A 3.67 | M 3.61 | S 4.15 | Q 4.11 | P 4.59 | F 3.38 | Y 3.3
R6: Y 3 | F 2.8 | D 4.61 | S 3.85 | C 3.51 | V 2.63 | E 5.07 | A 4.33 | L 3.81 | P 4.19 | N 4.59 | W 2.55 | I 2.12 | Q 4.37 | M 3.49 | H 4.41 | G 4.7 | K 4.5 | T 4.2
L9: R 4.3 | E 4.89 | A 4.98 | V 4.33 | F 3.2 | H 5.1 | C 4.48 | M 4.41 | Q 5.09 | K 4.35 | G 4.6 | S 4.03 | Y 3.54 | T 4.53 | I 4.06 | D 5.28 | N 5.06 | P 4.81
H1: W 3.36 | R 3.92 | Q 4.26 | G 4.55 | N 4.53 | I 3.45 | F 1.48 | Y 3.84 | D 4.88 | P 4.71 | S 4.34 | C 4.02 | K 4.35 | A 4.49 | V 3.21 | M 4.17 | E 4.42 | L 3.74 | T 4.59
A12: I 2.54 | F 1.92 | N 3.82 | E 5.13 | P 4.52 | Q 3.73 | Y 2.08 | H 2.94 | G 4.25 | C 2.4 | K 4.26 | R 4.37 | S 3.29 | W 2.67 | M 2.96 | D 4.55 | T 1.66 | L 3.14 | V 3.03
H3: P 3.56 | T 3.58 | D 4.67 | R 2.76 | G 3.9 | K 3.04 | N 4.44 | I 3.52 | F 3.33 | V 3.65 | C 2.92 | Y 3.51 | S 3.83 | Q 3.87 | W 2.43 | L 3.62 | E 4.71 | M 3.4 | A 3.58
